Laboratory results as given in patent US20250163161A1 (TECHNISCHE UNIVERSIT T DARMSTADT, published 2025).
Read-outs that look alike come from different tables or passages of the source.

T1: soluble IL-6R (sIL-6R-TS) (UniProt P08887 20-358)
T1 construct: not shown: TwinStrepII tag (TS)
T1 sequence (looked up): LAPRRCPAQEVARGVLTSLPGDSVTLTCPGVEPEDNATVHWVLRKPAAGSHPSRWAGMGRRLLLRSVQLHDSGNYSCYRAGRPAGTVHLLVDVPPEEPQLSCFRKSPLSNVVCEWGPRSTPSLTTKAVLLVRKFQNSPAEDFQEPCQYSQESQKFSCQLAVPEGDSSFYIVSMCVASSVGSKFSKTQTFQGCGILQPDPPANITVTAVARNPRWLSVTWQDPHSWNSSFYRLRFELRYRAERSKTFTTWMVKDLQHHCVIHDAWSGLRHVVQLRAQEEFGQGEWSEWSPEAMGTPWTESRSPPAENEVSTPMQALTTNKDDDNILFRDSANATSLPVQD

T2: IL-6R on cells (THP-1, A549) (UniProt P08887 20-468, limits assumed)
T2 construct: whole, on cells; also called THP-1 (IL-6R+/PD-L1+)
T2 sequence (looked up): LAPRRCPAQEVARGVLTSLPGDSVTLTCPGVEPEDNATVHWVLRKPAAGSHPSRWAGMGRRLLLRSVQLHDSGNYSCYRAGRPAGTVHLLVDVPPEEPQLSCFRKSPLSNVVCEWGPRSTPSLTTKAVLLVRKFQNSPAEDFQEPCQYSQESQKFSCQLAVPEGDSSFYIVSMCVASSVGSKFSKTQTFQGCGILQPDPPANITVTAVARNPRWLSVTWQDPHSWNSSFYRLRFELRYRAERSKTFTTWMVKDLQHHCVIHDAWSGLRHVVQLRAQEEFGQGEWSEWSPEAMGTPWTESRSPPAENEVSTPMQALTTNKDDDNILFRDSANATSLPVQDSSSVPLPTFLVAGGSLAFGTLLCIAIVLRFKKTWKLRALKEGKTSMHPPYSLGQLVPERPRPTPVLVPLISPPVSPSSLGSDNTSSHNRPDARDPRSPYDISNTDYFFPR


Columns and labels:
[1] = target: T3, His6-PD-L1-TS (soluble, monomeric PD-L1) (UniProt Q9NZQ7 19-238); assay: BLI, antibody on AHC biosensors
T3 construct: not shown: TwinStrepII tag (TS)

[2] = target: T1, soluble IL-6R (sIL-6R-TS); assay: BLI, antibody on AHC biosensors
[3] = target: T4, His6-EGFR-TS (soluble, monomeric EGFR) (UniProt P00533 25-645); assay: BLI, antibody on AHC biosensors
T4 construct: not shown: TwinStrepII tag (TS)

[4] = target: T5, EGFR and PD-L1 on EGFR/PD-L1 double positive A431 cells (UniProt P00533 25-1210; Q9NZQ7 19-290); assay: flow cytometry; Jurkat cells with antibody mixed with Calcein AM-stained A431 cells; anti-human Fc PE detection; Q2 = PE-positive Calcein-stained A431 events; Neg Ctrl Q2 0.13
T5 construct: whole, on cells; Two separate cell-surface proteins, not a complex; also called A431 (EGFR+/PD-L1+)

[5] = target: T5, EGFR and PD-L1 on EGFR/PD-L1 double …; assay: flow cytometry on A431 cells
[6] = target: PD-L1 on cells (A431; cells of the Promega PD-L1 blockade assay kit) (UniProt Q9NZQ7 19-290); assay: cell-based or functional assay
[7] = target: T6, epidermal growth factor receptor (EGFR), soluble, as used in BLI (UniProt P00533 25-645); assay: BLI
T6 construct: extracellular domain; also called EGFR-ECD

[8] = target: T7, programmed death-ligand 1 (PD-L1), soluble, as used in BLI (UniProt Q9NZQ7 19-238); assay: BLI
T7 construct: extracellular domain; also called PD-L1-ECD

[9] = target: T6, epidermal growth factor receptor …; assay: BLI; remark: listed apart in the source
[10] = target: T7, programmed death-ligand 1 (PD-L1), …; assay: BLI; remark: listed apart in the source
475-621 = 475-621 (human, UniProt P00533); assay: flow cytometry on yeast cells displaying truncated EGFR fragments; detection with goat anti-human Fc PE
273-621 = 273-621 (human, UniProt P00533); assay: as above
294-543 = 294-543 (human, UniProt P00533); assay: as above
[11] = target: T5, EGFR and PD-L1 on EGFR/PD-L1 double …; assay: flow cytometry on EGFR/PD-L1 double-positive A431 cells, anti-human Fc PE detection
[12] = target: T2, IL-6R on cells (THP-1, A549); assay: flow cytometry on THP-1 cells; legend: - represents no significant binding
[13] = target: T1, soluble IL-6R (sIL-6R-TS); assay: BLI simultaneous binding; antibody on AHC biosensors; 200 nM IL-6R, then 500 nM EGFR, then 500 nM PD-L1, 300 s each
[14] = target: T8, CD3 (CD3ε) on cells (Jurkat; TCR/CD3 effector cells) (UniProt P07766 23-207, limits assumed); assay: flow cytometry; Jurkat cells with antibody mixed with Calcein AM-stained A431 cells; anti-human Fc PE detection; Q3 = CD3-binding on Jurkats
T8 construct: whole, on cells; that number is the CD3ε entry; also called Jurkat (CD3+)
T8 sequence (P07766 23-207 limits assumed): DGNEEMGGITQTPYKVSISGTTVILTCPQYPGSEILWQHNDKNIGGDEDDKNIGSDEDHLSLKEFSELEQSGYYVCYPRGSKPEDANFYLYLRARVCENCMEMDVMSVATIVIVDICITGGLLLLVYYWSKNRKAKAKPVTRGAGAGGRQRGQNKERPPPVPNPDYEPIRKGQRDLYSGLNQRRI

T3 sequence (Q9NZQ7 other isoform, or with tags, fused parts or gaps): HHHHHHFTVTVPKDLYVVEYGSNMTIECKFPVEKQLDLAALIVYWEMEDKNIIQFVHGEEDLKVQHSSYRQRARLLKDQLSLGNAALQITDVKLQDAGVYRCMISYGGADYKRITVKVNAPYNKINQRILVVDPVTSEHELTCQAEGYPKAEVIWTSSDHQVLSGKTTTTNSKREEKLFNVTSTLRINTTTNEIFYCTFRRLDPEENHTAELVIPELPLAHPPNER
T7 sequence (Q9NZQ7 19-238): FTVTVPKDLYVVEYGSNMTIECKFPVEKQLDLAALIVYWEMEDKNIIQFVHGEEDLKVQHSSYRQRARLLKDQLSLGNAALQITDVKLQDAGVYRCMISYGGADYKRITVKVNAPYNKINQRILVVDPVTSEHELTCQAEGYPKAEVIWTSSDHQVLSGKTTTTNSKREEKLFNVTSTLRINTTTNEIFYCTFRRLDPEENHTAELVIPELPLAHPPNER
PD-L1 on cells (A431; cells of the Promega PD-L1 blockade assay kit), sequence (Q9NZQ7 19-290): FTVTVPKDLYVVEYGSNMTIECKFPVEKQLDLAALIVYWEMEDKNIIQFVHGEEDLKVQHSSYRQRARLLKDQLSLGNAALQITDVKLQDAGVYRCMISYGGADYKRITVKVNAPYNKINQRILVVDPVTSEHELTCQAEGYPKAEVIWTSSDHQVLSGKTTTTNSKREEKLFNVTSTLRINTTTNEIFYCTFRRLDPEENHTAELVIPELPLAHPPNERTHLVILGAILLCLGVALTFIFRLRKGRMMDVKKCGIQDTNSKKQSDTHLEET

Binder | Kd [1] [nM] | Kd [2] [nM] | Kd [3] [nM] | Q2 (FITC+/PE+) % of events [4] [%] | On-cell affinity [5] [nM] | binding result [12] | binding result [13] | also measured
(αCD3ε)K(αIL-6R)+H(αIL-6R) TriTECM (bispecific antibody, Fabs from HCP-LCE; effector-silenced IgG1 LALA; also called scFv(VH)-IgG1(H)-scFv2) heavy 1: not shown heavy 2: AVTLDESGGGLQTPGGALSLVCKASGFDFSSYDMAWVRQAPGKGLEWVAGIKSNGPWTNYGAAVKGRATISRDNGQSTVRLQLNNLRAEDTAIYYCAKPGAGYVGWDAAGTIDSWGHGTEVIVSSASTKGPSVFPLAPSSKSTSGGTAALGCLVKDYFPEPVTVSWNSGALTSGVHTFPAVLQSSGLYSLSSVVTVPSSSLGTQTYICNVNHKPSNTKVDKRVEPKSCDKTHTCPPCPAPEAAGGPSVFLFPPKPKDTLMISRTPEVTCVVVDVSHEDPEVKFNWYVDGVEVHNAKTKPREEQYNSTYRVVSVLTVLHQDWLNGKEYKCKVSNKALPAPIEKTISKAKGQPREPQVYTLPPSREEMTKNQVSLSCAVKGFYPSDIAVEWESNGQPENNYKTTPPVLDSDGSFFLVSKLTVDKSRWQQGNVFSCSVMHEALHNRFTQKSLSLSPGGSHHHHHHGGGGSGGGGSGGGGSSEVQLVESGGGLVQPGRSLRLSCAASRFTFDDYAMHWVRQAPGKGLEWVSGISWNSGRIGYADSVKGRFTISRDNAENSLFLQMNGLRAEDTALYYCAKGRDSFDIWGQGTMVTVSSAGGGGSGGGGSGGGGSSDIQMTQSPSSVSASVGDRVTITCRASQGISSWLAWYQQKPGKAPKLLIYGASSLESGVPSRFSGSGSGTDFTLTISSLQPEDFASYYCQQANSFPYTFGQGTKLEIKR light: ALTQPSSVSANLGETVKITCSGGAYSDCGWYQQKSPGSAPVTVIYYNDKRPSDIPSRFSGSTFGSTATLTITGVQAEDEAVYYCGGYDSRTGYVGVFGAGTTLTVLGQPKANPTVTLFPPSSEELQANKATLVCLISDFYPGAVTVAWKADGSPVKAGVETTKPSKQSNNKYAASSYLSLTPEQWKSHRSYSCQVTHEGSTVEKTVAPTECS | 130 | 2.71 | 271 | 16.5 | 12.3 | – | – | –
K(αCD3ε)+H(αIL-6R) TriTECM (bispecific antibody, Fabs from HCP-LCE; effector-silenced IgG1 LALA; also called IgG1(H)-scFv2) heavy 1: not shown heavy 2: AVTLDESGGGLQTPGGALSLVCKASGFDFSSYDMAWVRQAPGKGLEWVAGIKSNGPWTNYGAAVKGRATISRDNGQSTVRLQLNNLRAEDTAIYYCAKPGAGYVGWDAAGTIDSWGHGTEVIVSSASTKGPSVFPLAPSSKSTSGGTAALGCLVKDYFPEPVTVSWNSGALTSGVHTFPAVLQSSGLYSLSSVVTVPSSSLGTQTYICNVNHKPSNTKVDKRVEPKSCDKTHTCPPCPAPEAAGGPSVFLFPPKPKDTLMISRTPEVTCVVVDVSHEDPEVKFNWYVDGVEVHNAKTKPREEQYNSTYRVVSVLTVLHQDWLNGKEYKCKVSNKALPAPIEKTISKAKGQPREPQVYTLPPSREEMTKNQVSLSCAVKGFYPSDIAVEWESNGQPENNYKTTPPVLDSDGSFFLVSKLTVDKSRWQQGNVFSCSVMHEALHNRFTQKSLSLSPGGSHHHHHHGGGGSGGGGSGGGGSSEVQLVESGGGLVQPGRSLRLSCAASRFTFDDYAMHWVRQAPGKGLEWVSGISWNSGRIGYADSVKGRFTISRDNAENSLFLQMNGLRAEDTALYYCAKGRDSFDIWGQGTMVTVSSAGGGGSGGGGSGGGGSSDIQMTQSPSSVSASVGDRVTITCRASQGISSWLAWYQQKPGKAPKLLIYGASSLESGVPSRFSGSGSGTDFTLTISSLQPEDFASYYCQQANSFPYTFGQGTKLEIKR light: ALTQPSSVSANLGETVKITCSGGAYSDCGWYQQKSPGSAPVTVIYYNDKRPSDIPSRFSGSTFGSTATLTITGVQAEDEAVYYCGGYDSRTGYVGVFGAGTTLTVLGQPKANPTVTLFPPSSEELQANKATLVCLISDFYPGAVTVAWKADGSPVKAGVETTKPSKQSNNKYAASSYLSLTPEQWKSHRSYSCQVTHEGSTVEKTVAPTECS | – | 1.8 | 172 | 12.2 | 21.2 | – | – | –
HCP-LCE (heavy chain PD-L1-light chain EGFR) Two-in-One antibody (bispecific antibody, human IgG1, lambda, L234A L235A, V domains shown, Symmetric full-length IgG; heavy chain is the ICI2 heavy chain, lambda CL; also called 2in1) VH: AVTLDESGGGLQTPGGALSLVCKASGFDFSSYDMAWVRQAPGKGLEWVAGIKSNGPWTNYGAAVKGRATISRDNGQSTVRLQLNNLRAEDTAIYYCAKPGAGYVGWDAAGTIDSWGHGTEVIVSS VL: ALTQPSSVSANLGETVKITCSGGAYSDCGWYQQKSPGSAPVTVIYYNDKRPSDIPSRFSGSTFGSTATLTITGVQAEDEAVYYCGGYDSRTGYVGVFGAGTTLTVLG | – | – | – | – | – | – | – | EC50, cell-based PD-1/PD-L1 blockage assay (luciferase activity) [6]: 214 nM; Kd [7]: 236 nM; koff [7]: 0.0981 s⁻¹; kon [7]: 415000 M⁻¹ s⁻¹; Kd [8]: 78.3 nM; koff [8]: 0.0762 s⁻¹; kon [8]: 973000 M⁻¹ s⁻¹; Kd [9]: 236 nM; Kd [10]: 78.3 nM; binding result (475-621): no binding; binding result (273-621): no binding; binding result (294-543): no binding; EC50 [11]: 1.37 nM
(αCD3ε)K+H (bispecific antibody, Control variant with anti-CD3ε scFv fused to the N-terminus of the VH of the knob chain; not shown: CH1 and Knob-Fc (IgG1 LALA) with Twin-StrepII tag; CH1 and Hole-Fc (IgG1 LALA) with His6 tag) heavy 1: not shown heavy 2: AVTLDESGGGLQTPGGALSLVCKASGFDFSSYDMAWVRQAPGKGLEWVAGIKSNGPWTNYGAAVKGRATISRDNGQSTVRLQLNNLRAEDTAIYYCAKPGAGYVGWDAAGTIDSWGHGTEVIVSS light: ALTQPSSVSANLGETVKITCSGGAYSDCGWYQQKSPGSAPVTVIYYNDKRPSDIPSRFSGSTFGSTATLTITGVQAEDEAVYYCGGYDSRTGYVGVFGAGTTLTVLGQPKANPTVTLFPPSSEELQANKATLVCLISDFYPGAVTVAWKADGSPVKAGVETTKPSKQSNNKYAASSYLSLTPEQWKSHRSYSCQVTHEGSTVEKTVAPTECS | 108 | – | 236 | 15 | 1.82 | no binding | no binding (tested: 200 nM) | –
K+H (parental two-in-one antibody in Knob-into-Hole, effector-silenced LALA IgG1 format) (bispecific antibody, V domains shown, HCP-LCE Fabs on IgG1 LALA Knob-into-Hole Fc; also called parental K+H antibody) VH: AVTLDESGGGLQTPGGALSLVCKASGFDFSSYDMAWVRQAPGKGLEWVAGIKSNGPWTNYGAAVKGRATISRDNGQSTVRLQLNNLRAEDTAIYYCAKPGAGYVGWDAAGTIDSWGHGTEVIVSS VL: ALTQPSSVSANLGETVKITCSGGAYSDCGWYQQKSPGSAPVTVIYYNDKRPSDIPSRFSGSTFGSTATLTITGVQAEDEAVYYCGGYDSRTGYVGVFGAGTTLTVLG | 92.9 | – | 173 | 14 | 2.5 | no binding | no binding (tested: 200 nM) | binding result [14]: no binding
